The target in data set [1] is T1, Solute carrier family 22 member 1 (Rattus norvegicus, UniProt Q63089).
T1 sequence (Q63089 whole entry): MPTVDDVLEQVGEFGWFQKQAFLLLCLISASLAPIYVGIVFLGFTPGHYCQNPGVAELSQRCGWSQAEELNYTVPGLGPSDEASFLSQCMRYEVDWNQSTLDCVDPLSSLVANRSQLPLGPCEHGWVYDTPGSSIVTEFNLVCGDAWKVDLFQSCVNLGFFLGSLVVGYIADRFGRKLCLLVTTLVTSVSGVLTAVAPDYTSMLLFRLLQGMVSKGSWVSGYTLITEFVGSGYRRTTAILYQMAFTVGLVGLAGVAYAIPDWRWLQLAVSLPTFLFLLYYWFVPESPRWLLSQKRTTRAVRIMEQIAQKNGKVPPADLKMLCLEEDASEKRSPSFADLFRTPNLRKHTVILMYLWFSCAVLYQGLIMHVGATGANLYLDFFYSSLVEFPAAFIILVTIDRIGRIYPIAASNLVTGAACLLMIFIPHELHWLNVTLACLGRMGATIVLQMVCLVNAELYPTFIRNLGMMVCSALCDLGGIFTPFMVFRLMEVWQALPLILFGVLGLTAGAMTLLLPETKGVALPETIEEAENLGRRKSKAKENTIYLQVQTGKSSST
Nature of the data set: TP_TRANSPORTER: uptake in Xenopus laevis oocytes. Format: functional, cell-based. Conditions: oocyte.

Data set [2] has as its target T1, Solute carrier family 22 member 1. The experiment in a line: (§1) TP_TRANSPORTER: uptake (electrogenesis) in Xenopus laevis oocytes. The class given is functional, cell-based. As to conditions: oocyte.
Substrate in data set [3]: CC(=O)OCC[N+](C)(C)C
The description is as §1. Format: functional, cell-based, Oocyte.

Substrate in data set [4]: NCCc1c[nH]c2ccc(O)cc12
Described as §1. The class given is functional, cell-based, Oocyte.

Substrate in data set [5]: NCCc1c[nH]cn1
Nature of the data set: cells, lysate or membranes named.

Substrate in data set [6]: NCCc1ccc(O)c(O)c1
The experiment in a line: cells, lysate or membranes named.

The record followed here is ChEMBL document CHEMBL2074147, “Monoamine neurotransmitter transport mediated by the polyspecific cation transporter rOCT1” (FEBS Lett, 1996).

The Km is the substrate concentration at which the rate is half of its maximum.

Where “and” joins values, the source holds several entries; their conditions need not be identical. Equal values may be shown once.

For the molecule `C=C[C@H]1C[N@@]2CC[C@H]1C[C@@H]2[C@@H](O)c1ccnc2ccc(OC)cc12` [QUINIDINE], the Activity result in data set [1] was “is not a substrate [-]”.
Turning to `NC[C@H](O)c1ccc(O)c(O)c1` [NOREPINEPHRINE], in data set [2], the Activity entry is “substrate [+]”.
With `C=C[C@H]1C[N@@]2CC[C@H]1C[C@H]2[C@H](O)c1ccnc2ccc(OC)cc12` [QUININE], the Activity result in data set [1] was “is not a substrate [-]”.

B1: Solute carrier family 22 member 1 (Rattus norvegicus) (protein)
chain: T1 sequence (Q63089 whole entry)
As for B1, the Km is 46.8 µM in data set [3]; 37.6 µM in data set [4]; 98.6 µM in data set [5]; 19.4 µM and 51 µM in data set [6].
